In patent WO2000069914A2:

Target: recombinant Epithelial Glycoprotein-2 (EGP-2), baculovirus-expressed, purified (human) (UniProt P16422)
Assay: SPR (BIAcore), scFv over amine-coupled recombinant EGP-2

UniProt P16422, sequence (P16422 24-265 limits assumed): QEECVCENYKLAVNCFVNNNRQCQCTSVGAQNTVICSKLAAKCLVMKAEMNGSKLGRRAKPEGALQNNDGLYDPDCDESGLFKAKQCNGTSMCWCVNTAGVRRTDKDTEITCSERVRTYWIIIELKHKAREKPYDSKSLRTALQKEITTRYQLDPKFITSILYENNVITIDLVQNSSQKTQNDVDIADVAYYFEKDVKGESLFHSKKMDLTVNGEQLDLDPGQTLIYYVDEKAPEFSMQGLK

scFv MOC-31
koff: 0.00034 s⁻¹
